Data taken from patent publication US20250154276A1 (ZONHON BIOPHARMA INSTITUTE, published 2025).
Numbering of substitutions follows the chain as printed.

B1: 19G294 (bispecific antibody)
chain: DIVMTQSPSSLSVTPGERVSISCRSDKSLLHSNGNTYLYWFLQKPGQSPQVLIYRMSNLASGVPDRFSGSGSGTDFTLTISRVEAEDVGVYYCFQQLEYPYTFGQGTKLEIKGGGGSGGGGSGGGGSEVQLVQSGAELVKPGASVKLSCAASGFNIKDTYIYWVRQAPGQGLEWVGRIEPMNGNTKYDPKFQGRFTMTANTSKNTAYLQLSSLRSEDTAVYYCSRGGWLLLYVMDYWGQGTLVTVSSGGGGSDVQLVQSGAEVKKPGASVKVSCKASGYTFTRYTMHWVRQAPGQGLEWIGYINPSRGYTNYADSVKGRFTITTDKSTSTAYMELSSLRSEDTATYYCARYYDDHYCLDYWGQGTTVTVSSGGGGSGGGGSGGGGSDIVLTQSPATLSLSPGERATLSCRASQSVSYMNWYQQKPGKAPKRWIYDTSKVASGVPARFSGSGSGTDYSLTINSLEAEDAATYYCQQWSSNPLTFGGGTKVEIK
B2: ZA23 (bispecific antibody, human IgG1, kappa)
heavy 1: QVQLVQSGAEVVKPGASVKISCKASGFNIKDTYIYWVRQRTGQGLEWIGRIEPMNGNTKYDPKFQGRLTMTANTSKNTAYLQLSSLTSEDTAVYYCSRGGWLLLYVMDYWGQGTTVTVSSASTKGPSVFPLAPSSKSTSGGTAALGCLVKDYFPEPVTVSWNSGALTSGVHTFPAVLQSSGLYSLSSVVTVPSSSLGTQTYICNVNHKPSNTKVDKKVEPKSCDKTHTCPPCPAPEFLGGPSVFLFPPKPKDTLMISRTPEVTCVVVDVSQEDPEVQFNWYVDGVEVHNAKTKPREEQFNSTYRVVSVLTVLHQDWLNGKEYKCKVSNKGLPSSIEKTISKAKGQPREPQVYTLPPCQEEMTKNQVSLWCLVKGFYPSDIAVEWESNGQPENNYKTTPPVLDSDGSFFLYSRLTVDKSRWQEGNVFSCSVMHEALHNHYTQKSLSLSLGK
light 1: DIVMTQSASSLPVTPGEPASISCRSDKSLLHSNGNTYLYWFLQKPGQSPQVLIYRMSNLASGVPDRFSGSGSGTDFTLTISRVEAEDVGVYYCFQQLEYPYTFGQGTKLEIKRTVAAPSVFIFPPSDEQLKSGTASVVCLLNNFYPREAKVQWKVDNALQSGNSQESVTEQDSKDSTYSLSSTLTLSKADYEKHKVYACEVTHQGLSSPVTKSFNRGEC
heavy 2: DVQLVQSGAEVKKPGASVKVSCKASGYTFTRYTMHWVRQAPGQGLEWIGYINPSRGYTNYADSVKGRFTITTDKSTSTAYMELSSLRSEDTATYYCARYYDDHYCLDYWGQGTTVTVSSASTKGPSVFPCAPSSKSTSGGTAALGCLVKDYFPEPVTVSWNSGALTSGVHTFPAVLQSSGLYSLSSVVTVPSSSLGTQTYICNVNHKPSNTKVDKKVEPKSSDKTHTCPPCPAPEFLGGPSVFLFPPKPKDTLMISRTPEVTCVVVDVSQEDPEVQFNWYVDGVEVHNAKTKPREEQFNSTYRVVSVLTVLHQDWLNGKEYKCKVSNKGLPSSIEKTISKAKGQPREPQVCTLPPSQEEMTKNQVSLSCAVKGFYPSDIAVEWESNGQPENNYKTTPPVLDSDGSFFLVSRLTVDKSRWQEGNVFSCSVMHEALHNHYTQKSLSLSLGK
light 2: DIVLTQSPATLSLSPGERATLSCRASQSVSYMNWYQQKPGKAPKRWIYDTSKVASGVPARFSGSGSGTDYSLTINSLEAEDAATYYCQQWSSNPLTFGGGTKVEIKRTVAAPSVFICPPSDEQLKSGTASVVCLLNNFYPREAKVQWKVDNALQSGNSQESVTEQDSKDSTYSLSSTLTLSKADYEKHKVYACEVTHQGLSSPVTKSFNRGES
B3: ZA16 (bispecific antibody, human IgG1, kappa)
heavy 1: not shown
light 1: B2 light 1 with A8P, P12S, P18R, A19V
heavy 2: not shown
light 2: B2 light 2
B4: 18G272 (bispecific antibody)
chain: DIVMTQSASSLPVTPGEPASISCRSDKSLLHSNGNTYLYWFLQKPGQSPQVLIYRMSNLASGVPDRFSGSGSGTDFTLTISRVEAEDVGVYYCFQQLEYPYTFGQGTKLEIKGGGGSGGGGSGGGGSQVQLVQSGAEVVKPGASVKISCKASGFNIKDTYIYWVRQRTGQGLEWIGRIEPMNGNTKYDPKFQGRLTMTANTSKNTAYLQLSSLTSEDTAVYYCSRGGWLLLYVMDYWGQGTTVTVSSGGGGSDVQLVQSGAEVKKPGASVKVSCKASGYTFTRYTMHWVRQAPGQGLEWIGYINPSRGYTNYADSVKGRFTITTDKSTSTAYMELSSLRSEDTATYYCARYYDDHYCLDYWGQGTTVTVSSGGGGSGGGGSGGGGSDIVLTQSPATLSLSPGERATLSCRASQSVSYMNWYQQKPGKAPKRWIYDTSKVASGVPARFSGSGSGTDYSLTINSLEAEDAATYYCQQWSSNPLTFGGGTKVEIK

Legend:
human CD26 [1] = target: T1, human CD26 (human, UniProt P27487 1-766); assay: cell-based or functional assay
human CD26 [2] = target: T1, human CD26; assay: cell-based or functional assay; remark: listed apart in the source

| Binder | IC50 values (pM) of different bispecific antibodies mediating PBMC cytotoxicity to OS-RC-2 (human CD26 [1]) [pM] | IC50 values (pM) of different bispecific antibodies mediating PBMC cytotoxicity to different target cells (786-0) (human CD26 [2]) [pM] | IC50 values (pM) of different bispecific antibodies mediating PBMC cytotoxicity to different target cells (NCI-H226) (human CD26 [2]) [pM] | IC50 values (pM) of different bispecific antibodies mediating PBMC cytotoxicity to different target cells (OS-RC-2) (human CD26 [2]) [pM] | IC50 values (pM) of different bispecific antibodies mediating PBMC cytotoxicity to different target cells (PC-3) (human CD26 [2]) [pM] |
| --- | --- | --- | --- | --- | --- |
| B1 | 9.9 | 4.7 | 13.7 | 9.9 | 4 |
| B2 | 87.5 | – | – | – | – |
| B3 | 5.8 | – | – | – | – |
| B4 | – | 41.4 | 2.6 | 5.2 | 6.9 |
